Experimental data reported in patent US7229755 (Dana-Farber, dated 2007).

How the values were obtained:
[1] = molecular target: (Gal4 binding domain)-hMsh2 fusion (pAS1-hMSH2) (human, UniProt P04386 1-147 (Saccharomyces cerevisiae entry), limits assumed); test: cell-based or functional assay
[2] = molecular target: T1, hMsh2 protein with a hexa-HIS and factor Xa leader peptide at the N-terminus (overproduced in E. coli from a … (human, UniProt P43246 1-934)); test: gel-shift (supershift) of hMsh2 bound to a 32P-labelled 39-bp GT-mismatch duplex, with E. coli extract containing hMlh1
T1 construct: The leader peptide was not cleaved; The preparation was more than 50% pure; also called human Msh2; MSH2hu protein; not shown: hexa-HIS and factor Xa leader peptide from the pET vector derivative (Invitrogen)
Protocol: Mismatch binding by human mismatch repair proteins was studied using a gel-shift binding assay. Briefly, protein fractions are incubated with a ^32P-labelled 39-basepair oligonucleotide duplex that was designed to minimize intramolecular interactions (Oligo Designs), and also contained a GT mismatch at position 20. Incubations were done for 10 minutes at 23° C. in 20 mM Tris (pH 7.5), 50 mM KCl, 1 mM DTT, and 0.1 mM EDTA to allow formation of protein-DNA complexes. Several different competitor nucleic acids (e.g. poly dI-dC, an otherwise identical 39-mer that lacked the mismatch, and/or unlabelled mismatched substrate) were added to minimize nonspecific binding. Reactions were then loaded onto a 6% acrylamide gel in TBE, and were electrophoresed.

Row | Binder | β-galactosidase activity (GAL4 promoter-β-galactosidase reporter, yeast Two-Hybrid) [1] | binding result [2]
1 | (Gal4 activation domain)-hMlh1 fusion (pACTII-hMLH1) (other, not shown: large carriers) MSFVAGVIRRLDETVVNRIAAGEVIQRPANAIKEMIENCLDAKSTSIQVIVKEGGLKLIQIQDNGTGIRKEDLDIVCERFTTSKLQSFEDLASISTYGFRGEALASISHVAHVTITTKTADGKCAYRASYSDGKLKAPPKPCAGNQGTQITVEDLFYNIATRRKALKNPSEEYGKILEVVGRYSVHNAGISFSVKKQGETVADVRTLPNASTVDNIRSIFGNAVSRELIEIGCEDKTLAFKMNGYISNANYSVKKCIFLLFINHRLVESTSLRKAIETVYAAYLPKNTHPFLYLSLEISPQNVDVNVHPTKHEVHFLHEESILERVQQHIESKLLGSNSSRMYFTQTLLPGLAGPSGEMVKSTTSLTSSSTSGSSDKVYAHQMVRTDSREQKLDAFLQPLSKPLSSQPQAIVTEDKTDISSGRARQQDEEMLELPAPAEVAAKNQSLEGDTTKGTSEMSEKRGPTSSNPRKRHREDSDVEMVEDDSRKEMTAACTPRRRIINLTSVLSLQEEINEQGHEVLREMLHNHSFVGCVNPQWALAQHQTKLYLLNTTKLSEELFYQILIYDFANFGVLRLSEPAPLFDLAMLALDSPESGWTEEDGPKEGLAEYIVEFLKKKAEMLADYFSLEIDEEGNLIGLPLLIDNYVPPLEGLPIFILRLATEVNWDEEKECFESLSKECAMFYSIRKQYISEESTLSGQQSEVPGSIPNSWKWTVEHIVYKALRSHILPPKHFTEDGNILQLANLPDLYKVFERC | ~100 fold | –
2 | hMlh1 protein overproduced in E. coli from pET-hMLH1 constructs (used as clarified bacterial extract) (other, The protein was not purified and was used as clarified bacterial extract; also called hMLH1 gene product) MSFVAGVIRRLDETVVNRIAAGEVIQRPANAIKEMIENCLDAKSTSIQVIVKEGGLKLIQIQDNGTGIRKEDLDIVCERFTTSKLQSFEDLASISTYGFRGEALASISHVAHVTITTKTADGKCAYRASYSDGKLKAPPKPCAGNQGTQITVEDLFYNIATRRKALKNPSEEYGKILEVVGRYSVHNAGISFSVKKQGETVADVRTLPNASTVDNIRSIFGNAVSRELIEIGCEDKTLAFKMNGYISNANYSVKKCIFLLFINHRLVESTSLRKAIETVYAAYLPKNTHPFLYLSLEISPQNVDVNVHPTKHEVHFLHEESILERVQQHIESKLLGSNSSRMYFTQTLLPGLAGPSGEMVKSTTSLTSSSTSGSSDKVYAHQMVRTDSREQKLDAFLQPLSKPLSSQPQAIVTEDKTDISSGRARQQDEEMLELPAPAEVAAKNQSLEGDTTKGTSEMSEKRGPTSSNPRKRHREDSDVEMVEDDSRKEMTAACTPRRRIINLTSVLSLQEEINEQGHEVLREMLHNHSFVGCVNPQWALAQHQTKLYLLNTTKLSEELFYQILIYDFANFGVLRLSEPAPLFDLAMLALDSPESGWTEEDGPKEGLAEYIVEFLKKKAEMLADYFSLEIDEEGNLIGLPLLIDNYVPPLEGLPIFILRLATEVNWDEEKECFESLSKECAMFYSIRKQYISEESTLSGQQSEVPGSIPNSWKWTVEHIVYKALRSHILPPKHFTEDGNILQLANLPDLYKVFERC | – | binds
